Test results taken from US20080261201A1, “Methods and compounds to alter virus infection” (priority 2006, published 2008).
Where two headings read alike, the source gives them in different places.

How the values were obtained:
AAV2 capsid [1] = molecular target: T1, AAV2 capsid (Adeno-associated virus 2, UniProt P03135); conditions: 100 nM H2O2
Method: Subtle changes in capsid structure of the virion following heat denaturation or exposure to H2O2 was assayed using MALDI-TOF mass spectrometry following trypsin digestion. Briefly, 10^10 AAV2 particles were treated with H2O2 (which was then removed by dialysis for 1 hour against 20 mM Tris, 20 mM NaCl, pH 8.0) or heated to 70° C. as described above and then incubated with 500 ng of porcine trypsin in 25 mM NH4HCO3 (pH 8.0) at 37° C. for 16 hours. The digested products were then sequentially incubated with 10 mM DTT and 55 mM of iodoacetamide to reduce and modify cysteine residues. 1/20 of the original sample was assayed on a Bruker Biflex III MALDI-TOF MS. For the analysis of cysteine modification, the theoretical m/z values of peptides containing individual cysteines were predicted without modification, with iodoacetamide modification, and with different oxidative (sulfenic, sulfinic, or sulfonic) modifications. Spectra were evaluated using ExPASy (http://us.expasy.org/tools/peptide-mass.html) and compared to the theoretical spectra for various VP proteins.

AAV2 [2] = conditions: Sanlioglu et al., 2004; 1999; cited from earlier work
AAV2 capsid [3] = molecular target: T1, AAV2 capsid; conditions: following 100 nM H2O2 treatment; data not shown
AAV2 capsid PLA2 = AAV2 capsid PLA2 (Adeno-associated virus 2, UniProt P03135)
Method: 10^10 purified AV2FVIII virions were treated with various conditions to activate PLA2 activity in the capsid of purified virions. This included pre-incubation of virus with various concentration of H2O2 for 15 minutes at 37° C. or partial heat denaturation at 70° C. for 2 minutes. Catalase was added to virus treated with H2O2 at the end of the treatment period to scavenge H2O2 prior to the PLA2 activity assay. PLA2 activity of virions was determined by the release of radioactive fatty acid from L-3-phosphatidylcholine (PC), 1,2-di[1-^14C]oleoyl using the protocol described by Zadori et al. (2001).

Rac1 = assay: HA-Rac1 incorporation into vesicular fractions of MCF-7 cells, Western blot; format: cell-based; conditions: IL-1β 1 ng/mL for 20 minutes
Method: Buoyant density centrifugation was used for subcellular fractionation and isolation of endosomes containing Nox2 activity. Cells were washed twice with ice-cold PBS and scrapped into a 1.5 mL microfuge tube using the same buffer. The cells were pelleted and resuspended in homogenization buffer (HMB) containing 0.25 M sucrose, 20 mM HEPES pH 7.4, 1 mM EDTA, and an EDTA-free protease inhibitor cocktail. The cells were homogenized using nitrogen cavitation in a cell disruption high-pressure chamber (Parr instruments, Moline, Ill.). The pressure was raised to 650-psi for 5 minutes and released suddenly. The homogenate was centrifuged at 3000×g for 15 minutes to pellet unbroken cells, nuclei, and heavy mitochondria. The heavy mitochondrial supernatant (HMS) was bottom loaded into an iodixanol discontinuous gradient in a 12.5 mL SW41Ti ultracentrifuge tube using a previously described method with modifications (Graham et al., 1994; Xia et al., 1998).
The discontinuous gradient was composed of 1.25 mL HMB without EDTA followed by bottom loading of the following % iodixanol steps sequentially with 1.0 mL 2.5%, 1.0 mL 5%, 1.5 mL 9%, 1.5 mL 14%, 2.5 mL 19%, 1.5 mL 26%, and finally the HMS in 2 mL 32%. Iodixanol concentrations were prepared fresh using a 50% iodixanol working solution (WS) diluted with HMB without EDTA. […]

AAV2 [4] = assay: AAV2 (AV2Luc) transduction of Nox1/Nox2 WT and KO primary mouse dermal fibroblasts (PMDF); format: cell-based; conditions: catalase 1 mg/ml
Method: (§1) Recombinant type-2 adeno-associated viruses encoding luciferase (AV2Luc) or factor VIII (AV2FVIII) transgenes were used for infection of different cell types. HeLa and IB3 cells were cultured in DMEM supplemented with 10% fetal bovine serum (FBS) and antibiotics. Nox 1 and Nox2 knockout and wild-type (wt) littermate control mouse dermal fibroblasts were generated from newborn mice as described in Bosu et al. (2001) and below. For all infections, viruses were applied to cells in serum-free DMEM, and an equal volume of 20% FBS/DMEM was added at 2 hours post-infection.
(§2) In studies evaluating the efficiency of viral transduction, AV2Luc virus was used at a multiplicity of infection (MOI) equal to 1,000 particles/cell, and luciferase activity was measured at 24 hours post-infection. In studies evaluating viral entry, cells were incubated with 1,000 particles/cell of AV2FVIII at 4° C. for 30 minutes prior to removing virus, washing cells, and shifting cells to 37° C. Cells were then incubated for the indicated times and postnuclear supernatants (PNS) were prepared for analysis of intracellular AAV2. Taqman PCR was used to quantify the abundance of viral genomes in different subcellular fractions following infection using primer sets and methods described in Ding et al. (2006). […]

AAV2 [5] = assay: Virion endosomal escape assay (30% iodixanol cushion) in HeLa cells; format: cell-based; conditions: 1 hour following infection, catalase loading
Method: A protocol using a 30% iodixanol cushion was developed to separate AAV2 virions in the cytoplasm from those inside endosomes. Briefly, HeLa cells were incubated with 1,000 particles/cell of AAV2 at 4° C. for 30 minutes before removing virus, washing cells, and shifting cells to 37° C. Cells were then incubated for the indicated times and PNS were prepared. A total volume of 500 μl PNS was then loaded on the top of 250 μl 30% iodixanol, followed by centrifugation at 100,000×g for 1 hour. Viral genome within the supernatant and pellet were quantified by real-time PCR.

NADPH oxidase = molecular target: T2, NADPH oxidase (Homo sapiens, UniProt P04839); assay: NADPH-dependent superoxide production in endosomal (vesicular) fractions, lucigenin-based assay; format: biochemical; conditions: HeLa cells; 20 minutes following infection; catalase 1 mg/mL
T2 construct: endogenous in cells; host or cells: iodixanol-fractionated endosomal (vesicular) fractions of HeLa and IB3 cells after AAV2 infection
Method: Vesicular fractionation was performed using a previously described protocol (Li et al., 2006b) with minor modifications. Briefly, cells were harvested by scraping and washing twice in 4° C. phosphate-buffered saline (PBS). Cells were then pelleted and resuspended on ice in 1 mL of pre-cooled (4° C.) homogenization buffer (0.25 M sucrose, 10 mM triethanolamine, 1 mM EDTA, 1 mM PMSF, and 100 μg/mL aprotinin) and homogenized using a nitrogen decompression vessel (Parr Instrument, Moline, Ill.). Methods for generating PNS, iodixanol isolation of vesicular fractions, sample collection, quality control, and Nox activity assays were performed as described in Li et al. (2006b).
In brief, vesicular fractions were confirmed by Western blot to contain known endosomal Rab proteins and be devoid of markers for plasma membrane and mitochondria. Nox activities were analyzed by measuring the rate of .O2— generation using a chemiluminescent, lucigenin-based system. […] The reaction was initiated by the addition of 100 μM of NADPH (Sigma-Aldrich, St. Louis, Mo.) and changes in luminescence were measured over the course of 3 min (5 readings/sec). The slope of the luminescence curve (relative light units [RLU] per minute) (r>0.95) was used to calculate the rate of .O2^− formation as an index of NADPH oxidase activity.

AAV2 [6] = assay: AAV2 (AV2Luc) transduction of IB3 cells, luciferase activity; format: cell-based
Method: as §1, §2

AAV2 [7] = assay: AAV2 (AV2Luc) transduction of HeLa cells, luciferase activity; format: cell-based
Method: as §1
(§3) In studies evaluating viral entry, cells were incubated with 1,000 particles/cell of AV2FVIII at 4° C. for 30 minutes prior to removing virus, washing cells, and shifting cells to 37° C. Cells were then incubated for the indicated times and postnuclear supernatants (PNS) were prepared for analysis of intracellular AAV2. Taqman PCR was used to quantify the abundance of viral genomes in different subcellular fractions following infection using primer sets and methods described in Ding et al. (2006). When proteasome inhibitors were added to induce AAV2 transduction, LLnL (Boston Biochem, Cambridge, Mass.) and/or doxorubicin (Calbiochem, San Diego, Calif.), were present in the medium at concentrations of 40 μM and 5 μM, respectively. Modulation of endosomal ROS was achieved by adding 1 mg/mL of purified bovine Cu/Zn superoxide dismutase (Cu/ZnSOD) (Oxis Research, Portland, Oreg.) and/or catalase (Sigma-Aldrich, St. Louis, Mo.) to the medium which was then applied to cells 20 minutes prior to viral infections unless indicated otherwise. SOD and/or catalase remained in the medium during infection unless otherwise indicated.

AAV2 [8] = assay: Viral uptake/accumulation, viral genomes quantified by Taqman PCR, HeLa cells; format: cell-based
Method: as §3, with “In studies evaluating the efficiency of viral transduction, AV2Luc virus was used at a multiplicity of infection (MOI) equal to 1,000 particles/cell, and luciferase activity was measured at 24 hours post-infection. In” for “In”

Sequence of AAV2 capsid PLA2 (P03135 whole entry): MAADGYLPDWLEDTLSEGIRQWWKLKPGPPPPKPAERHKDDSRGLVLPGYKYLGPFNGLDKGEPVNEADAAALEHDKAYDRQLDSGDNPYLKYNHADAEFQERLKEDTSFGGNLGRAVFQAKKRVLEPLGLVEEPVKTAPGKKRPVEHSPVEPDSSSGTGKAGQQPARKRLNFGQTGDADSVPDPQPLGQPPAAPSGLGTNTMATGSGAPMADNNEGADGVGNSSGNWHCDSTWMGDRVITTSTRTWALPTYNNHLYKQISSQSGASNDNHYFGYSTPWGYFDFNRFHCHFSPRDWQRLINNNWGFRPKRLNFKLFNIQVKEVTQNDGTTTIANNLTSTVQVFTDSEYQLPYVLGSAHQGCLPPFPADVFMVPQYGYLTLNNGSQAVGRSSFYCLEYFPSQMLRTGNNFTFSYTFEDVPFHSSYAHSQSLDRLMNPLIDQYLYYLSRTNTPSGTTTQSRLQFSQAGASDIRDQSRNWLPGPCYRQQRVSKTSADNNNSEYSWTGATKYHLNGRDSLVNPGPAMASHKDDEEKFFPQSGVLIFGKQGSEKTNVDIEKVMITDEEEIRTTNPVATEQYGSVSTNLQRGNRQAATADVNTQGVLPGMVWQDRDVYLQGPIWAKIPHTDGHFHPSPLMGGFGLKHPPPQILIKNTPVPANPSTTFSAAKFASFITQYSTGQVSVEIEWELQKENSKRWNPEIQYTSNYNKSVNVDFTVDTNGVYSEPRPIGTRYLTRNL
Sequence of AAV2 capsid PLA2 (P03135 1-598 isoform P03135-2 partner): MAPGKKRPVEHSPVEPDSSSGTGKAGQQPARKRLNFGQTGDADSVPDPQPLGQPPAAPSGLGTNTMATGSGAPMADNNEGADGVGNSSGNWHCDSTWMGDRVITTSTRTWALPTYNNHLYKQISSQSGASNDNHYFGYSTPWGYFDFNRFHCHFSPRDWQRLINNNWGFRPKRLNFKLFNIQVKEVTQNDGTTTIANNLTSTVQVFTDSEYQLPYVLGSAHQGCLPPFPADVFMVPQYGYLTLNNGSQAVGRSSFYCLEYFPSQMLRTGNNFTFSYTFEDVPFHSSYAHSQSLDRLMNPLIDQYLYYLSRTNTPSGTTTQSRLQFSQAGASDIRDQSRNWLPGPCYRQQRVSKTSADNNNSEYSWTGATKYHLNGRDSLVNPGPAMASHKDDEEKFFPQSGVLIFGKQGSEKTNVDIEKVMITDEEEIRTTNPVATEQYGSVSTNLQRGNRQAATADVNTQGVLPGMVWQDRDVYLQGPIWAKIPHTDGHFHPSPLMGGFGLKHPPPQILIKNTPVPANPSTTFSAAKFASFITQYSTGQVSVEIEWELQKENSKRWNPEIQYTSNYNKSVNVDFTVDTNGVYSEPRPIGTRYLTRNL
Sequence of AAV2 capsid PLA2 (P03135 203-735 partner limits assumed): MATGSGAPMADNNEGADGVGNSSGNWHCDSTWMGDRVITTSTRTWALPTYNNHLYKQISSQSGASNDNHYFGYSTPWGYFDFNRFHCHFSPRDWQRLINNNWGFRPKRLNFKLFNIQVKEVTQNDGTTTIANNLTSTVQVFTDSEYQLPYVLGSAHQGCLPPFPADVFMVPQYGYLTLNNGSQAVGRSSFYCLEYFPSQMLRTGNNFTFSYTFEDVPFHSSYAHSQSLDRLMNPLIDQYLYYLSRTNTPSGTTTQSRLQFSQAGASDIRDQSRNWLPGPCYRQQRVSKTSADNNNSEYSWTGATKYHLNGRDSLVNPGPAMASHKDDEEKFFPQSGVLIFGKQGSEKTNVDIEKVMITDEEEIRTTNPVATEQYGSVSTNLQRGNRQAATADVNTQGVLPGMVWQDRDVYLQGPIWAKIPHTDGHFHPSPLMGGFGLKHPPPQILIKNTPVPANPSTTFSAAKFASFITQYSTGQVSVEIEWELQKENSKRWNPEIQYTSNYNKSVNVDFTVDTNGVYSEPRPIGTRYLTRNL
T1 sequence (P03135 whole entry): as the sequence (P03135 whole entry) above
T1 sequence (P03135 1-598 isoform P03135-2): as the sequence (P03135 1-598 isoform P03135-2 partner) above
T1 sequence (P03135 203-735): as the sequence (P03135 203-735 partner limits assumed) above

OO [H2O2, hydrogen peroxide]
tryptic digestion of AAV2 virions after pre-treatment (AAV2 capsid [1]): significantly enhanced tryptic digestion
effect on AAV2 transduction (AAV2 [2]): increase AAV2 transduction
number of cysteines that form sulfonic acid in the capsid (AAV2 capsid [3]): < 5%
PLA2 activity of H2O2-treated virions (AAV2 capsid PLA2): greater than that seen following partial virion heat denaturation
optimal concentration of H2O2 for PLA2 activation (AAV2 capsid PLA2): 100 nM

IL-1β: interleukin used to stimulate MCF-7 cells
HA-Rac1 incorporation into crude vesicular fractions (Rac1): significantly enhanced

B1: catalase: purified bovine catalase (Sigma-Aldrich) loaded into endosomes to clear H2O2 (protein, UniProt P00432 2-527, looked up)
Catalase: ADNRDPASDQMKHWKEQRAAQKPDVLTTGGGNPVGDKLNSLTVGPRGPLLVQDVVFTDEMAHFDRERIPERVVHAKGAGAFGYFEVTHDITRYSKAKVFEHIGKRTPIAVRFSTVAGESGSADTVRDPRGFAVKFYTEDGNWDLVGNNTPIFFIRDALLFPSFIHSQKRNPQTHLKDPDMVWDFWSLRPESLHQVSFLFSDRGIPDGHRHMNGYGSHTFKLVNANGEAVYCKFHYKTDQGIKNLSVEDAARLAHEDPDYGLRDLFNAIATGNYPSWTLYIQVMTFSEAEIFPFNPFDLTKVWPHGDYPLIPVGKLVLNRNPVNYFAEVEQLAFDPSNMPPGIEPSPDKMLQGRLFAYPDTHRHRLGPNYLQIPVNCPYRARVANYQRDGPMCMMDNQGGAPNYYPNSFSAPEHQPSALEHRTHFSGDVQRFNSANDDNVTQVRTFYLKVLNEEQRKRLCENIAGHLKDAQLFIQKKAVKNFSDVHPEYGSRIQALLDKYNEEKPKNAVHTYVQHGSHLSAREKANL
effect on AAV2 transduction (AAV2 [4]; Nox1+/+ and Nox1-/- PMDFs, baseline and proteasome inhibitor induced): inhibited transduction
effect on AAV2 transduction (AAV2 [4]; Nox2-/- PMDFs): did not significantly alter
inhibition of viral escape from endosomes (AAV2 [5]): about 3 fold
effect on Nox activity in the endosomal compartment (NADPH oxidase): did not affect
effect on ability of proteasome inhibitors to enhance AAV2 transduction (AAV2 [6]; 40 μM LLnL and 5 μM doxorubicin): completely abolished
effect on AAV2 transduction (luciferase transgene expression) (AAV2 [6]; 1 mg/mL catalase endosomal loading): significantly inhibited
effect on ability of proteasome inhibitors to enhance AAV2 transduction (AAV2 [7]; HeLa cells, 40 μM LLnL and 5 μM doxorubicin): completely abolished
effect on AAV2 transduction (luciferase transgene expression) (AAV2 [7]; HeLa cells, 1 mg/mL catalase endosomal loading): significantly inhibited
ability of catalase loading to inhibit viral transduction (AAV2 [7]; catalase added by 30 minutes post-infection): significantly declined
ability of catalase loading to inhibit viral transduction (AAV2 [7]; catalase added by 60 minutes post-infection): completely absent
decrease of rAAV2 transduction by catalase loading (AAV2 [7]; endosomal catalase loading, cell type not stated in b12): about 80 fold
effect on viral uptake (AAV2 [8]; 1 mg/mL catalase): not due to impaired viral uptake
effect on viral accumulation in the endosomal compartment (AAV2 [8]; 20 minutes following infection, catalase 1 mg/mL): did not affect
